Where two headings read alike, the source gives them in different places. Each block holds one molecule with its values, some of them ahead of it.
Assays:
[1] = target: cofilin (endogenous, primary hippocampal neurons) (rat (endogenous in primary hippocampal neurons)) (UniProt P45592); experiment: proximity ligation
Myc-(C32G)CAP2 = Myc-(C32G)CAP2 (UniProt P40123); experiment: proximity ligation
[2] = target: the molecule itself; experiment: non-reducing SDS-PAGE with Western blot
[3] = target: the molecule itself; experiment: non-reducing SDS-PAGE with Western blot; remark: listed apart in the source

Chain of cofilin (endogenous, primary hippocampal neurons) (rat (endogenous in primary hippocampal neurons)) (P45592 whole entry): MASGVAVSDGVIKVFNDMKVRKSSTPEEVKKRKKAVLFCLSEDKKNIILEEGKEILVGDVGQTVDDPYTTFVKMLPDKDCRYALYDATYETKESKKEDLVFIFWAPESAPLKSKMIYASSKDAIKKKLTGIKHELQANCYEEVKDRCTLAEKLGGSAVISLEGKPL

PLA clusters/μm [1]: 0.032 clusters/μm
PLA clusters/μm (CTRL) [1]: 0.0317 clusters/μm
PLA clusters/μm (cLTP) [1]: 0.0984 clusters/μm
Molecule: Myc-CAP2 (from UniProt Q9CYT6 1-476) (natural protein)

PLA clusters/μm [1]: 0.0144 clusters/μm
PLA clusters/μm (cLTP) [1]: 0.0315 clusters/μm
Molecule: Myc-(C32G)CAP2 (from UniProt P40123 1-477) (natural protein)

PLA clusters/μm (Myc-(C32G)CAP2): 0.566 clusters/μm
PLA clusters/μm (cLTP) (Myc-(C32G)CAP2): 0.461 clusters/μm
Molecule: EGFP-CAP2 (from UniProt Q9CYT6 1-476) (natural protein)

B1: CAP2 (endogenous, primary hippocampal neurons) (natural protein)
chain: MADMLGLMQRLEFAVSRLERLSSGLHEPPGGCGEVNSLSRGIVAPSVEAFDKLINSMVAEFLKNSRVLAGDVETHAEMVHGAFQAQRAFLLMVSQHQQPQENEVAVLLKPISEKIQEIQTFRERNRGSDMFNHLSAVSESIAALGWIAVSPKPGPYVKEMNDAATFYTNRVLRDYKHSDLRHVDWVRSYLKIWSELQAYIKEHHTTGLTWSKTGPVASTASAFSILSSGPGLPPPPPPPPPPGPPPPFENEGGKEEPSPSRSALFAQLNQGEAITKGLRHVTDDKKIYKNPSLRAQGQIRSPTKTRTPSPTSSKSNSPQKHAPVLELEGKKWRVEYQEDRNDLVISETELKQVAYIFKCDKSTLQIKGKVNSITVDNCKKFGLVFDHVVGIVEVINSKDIQIQVMGRVPTISINKTEGCHLYLSKDALDCEIVSAKSSEMNVLVPQGDDYREFPIPEQFKTIWDGSKLITEPAEIMA
stoichiometry N [2]: 2

B2: CAP2 (endogenous, rat hippocampus) (natural protein)
chain: MADMLGLMQRLEFAVSRLERLSSGLHEPPGGCGEVNSLSRGIVAPSVEAFDKLINSMVAEFLKNSRVLAGDVETHAEMVHGAFQAQRAFLLMVSQHQQPQENEVAVLLKPISEKIQEIQTFRERNRGSDMFNHLSAVSESIAALGWIAVSPKPGPYVKEMNDAATFYTNRVLRDYKHSDLRHVDWVRSYLKIWSELQAYIKEHHTTGLTWSKTGPVASTASAFSILSSGPGLPPPPPPPPPPGPPPPFENEGGKEEPSPSRSALFAQLNQGEAITKGLRHVTDDKKIYKNPSLRAQGQIRSPTKTRTPSPTSSKSNSPQKHAPVLELEGKKWRVEYQEDRNDLVISETELKQVAYIFKCDKSTLQIKGKVNSITVDNCKKFGLVFDHVVGIVEVINSKDIQIQVMGRVPTISINKTEGCHLYLSKDALDCEIVSAKSSEMNVLVPQGDDYREFPIPEQFKTIWDGSKLITEPAEIMA
stoichiometry N [2]: 2

B3: CAP2 (endogenous, human hippocampus) (natural protein)
chain: MANMQGLVERLERAVSRLESLSAESHRPPGNCGEVNGVIAGVAPSVEAFDKLMDSMVAEFLKNSRILAGDVETHAEMVHSAFQAQRAFLLMASQYQQPHENDVAALLKPISEKIQEIQTFRERNRGSNMFNHLSAVSESIPALGWIAVSPKPGPYVKEMNDAATFYTNRVLKDYKHSDLRHVDWVKSYLNIWSELQAYIKEHHTTGLTWSKTGPVASTVSAFSVLSSGPGLPPPPPPLPPPGPPPLFENEGKKEESSPSRSALFAQLNQGEAITKGLRHVTDDQKTYKNPSLRAQGGQTQSPTKSHTPSPTSPKSYPSQKHAPVLELEGKKWRVEYQEDRNDLVISETELKQVAYIFKCEKSTIQIKGKVNSIIIDNCKKLGLVFDNVVGIVEVINSQDIQIQVMGRVPTISINKTEGCHIYLSEDALDCEIVSAKSSEMNILIPQDGDYREFPIPEQFKTAWDGSKLITEPAEIMA
stoichiometry N [2]: 2

B4: CAP2 (endogenous, mouse hippocampus) (natural protein)
chain: MTDMAGLMERLERAVIRLEQLSAGLDGPPRGCGEVNGVNGGVAPSVEAFDKLINSMVAEFLKNSRVLAGDVETHAEMVHGAFQAQRAFLLMVSQYQQPQENEVAVLLKPISEKIQEIQTFRERNRGSNMFNHLSAVSESIAALGWIAVSPKPGPYVKEMNDAATFYTNRVLKDYKHSDLRHVDWVRSYLNIWSELQAYIREHHTTGLTWSKTGPVASTASAFSILSSGPGLPPPPPPPPPPGPPPPFENEDKKEEPSPSRSALFAQLNQGEAITKGLRHVTDDKKTYKNPSLRAQGQIRSPTKTHTPSPTSPKSNSPQKHTPVLELEGKKWRVEYQEDRNDLVISETELKQVAYIFKCDKSTLQIKGKVNSITVDNCKKFGLVFDHVVGIVEVINSKDIQIQVMGRVPTISINKTEGCHLYLSEDALDCEIVSAKSSEMNVLVPQDDDYREFPIPEQFKTIWDGSKLVTEPAEIMA
stoichiometry N [2]: 2

B5: Myc-CAP2 (natural protein)
chain: MTDMAGLMERLERAVIRLEQLSAGLDGPPRGCGEVNGVNGGVAPSVEAFDKLINSMVAEFLKNSRVLAGDVETHAEMVHGAFQAQRAFLLMVSQYQQPQENEVAVLLKPISEKIQEIQTFRERNRGSNMFNHLSAVSESIAALGWIAVSPKPGPYVKEMNDAATFYTNRVLKDYKHSDLRHVDWVRSYLNIWSELQAYIREHHTTGLTWSKTGPVASTASAFSILSSGPGLPPPPPPPPPPGPPPPFENEDKKEEPSPSRSALFAQLNQGEAITKGLRHVTDDKKTYKNPSLRAQGQIRSPTKTHTPSPTSPKSNSPQKHTPVLELEGKKWRVEYQEDRNDLVISETELKQVAYIFKCDKSTLQIKGKVNSITVDNCKKFGLVFDHVVGIVEVINSKDIQIQVMGRVPTISINKTEGCHLYLSEDALDCEIVSAKSSEMNVLVPQDDDYREFPIPEQFKTIWDGSKLVTEPAEIMA
stoichiometry N [3]: 2
